Test results as given in patent US7514534 (DYAX, dated 2009).
Blank lines part the entries; values can stand above or below the binder they belong to.

Key:
[1] = molecular target: T1, MMP-26 catalytic domain, tagged with hexa-histidine (human, UniProt Q9NRE1 90-261); assay: bead-based ELISA, MMP-26 on nickel beads, IgG4 culture supernatant
T1 construct: the forward primer adds Met-Ala before it; also called MMP-26 target protein; Matrilysin-2; not shown: Also any N-terminal residues added by the forward primer (Met-Ala according to our card; the primers were not visible to me)
T1 sequence: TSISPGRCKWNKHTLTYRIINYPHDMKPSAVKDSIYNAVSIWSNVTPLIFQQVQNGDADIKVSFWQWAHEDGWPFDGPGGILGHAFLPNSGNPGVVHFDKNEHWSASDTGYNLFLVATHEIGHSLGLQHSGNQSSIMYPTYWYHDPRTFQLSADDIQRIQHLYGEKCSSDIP
Protocol: Reformatted and expressed full-length MMP-26 binding IgG4 antibodies were tested for specificity in a bead-based ELISA. Approximately 1.25 μg of MMP-26 protein was bound to nickel-coated magnetic beads (Novagen) which had been pre-blocked with phosphate buffered saline containing 5% (w/v) nonfat dry milk and 0.05% (v/v) Tween-20. The beads were washed in phosphate buffered saline containing 0.05% (v/v) Tween-20 (PBS-T) and 100 uls of unpurified cell culture supernatant containing transiently produced MMP-26-binding antibodies was added and incubated on a rotator for sixty minutes. The beads were washed with PBS-T and MMP-26-binding antibodies were detected with an HRP-conjugated anti-human secondary antibody. Data is expressed in fold over background where background consists of beads, blocking agent, and culture supernatant containing target antibody (Table 2; in this table, Results shown as fold over background (F>B) where background consists of beads, blocking agent, and culture supernatant).

MMP-9 = molecular target: T2, MMP-9 (UniProt P14780 107-707, limits assumed); assay: cross-reactivity ELISA on coated MMP
T2 construct: also called gelatinase
T2 sequence (P14780 107-707 limits assumed): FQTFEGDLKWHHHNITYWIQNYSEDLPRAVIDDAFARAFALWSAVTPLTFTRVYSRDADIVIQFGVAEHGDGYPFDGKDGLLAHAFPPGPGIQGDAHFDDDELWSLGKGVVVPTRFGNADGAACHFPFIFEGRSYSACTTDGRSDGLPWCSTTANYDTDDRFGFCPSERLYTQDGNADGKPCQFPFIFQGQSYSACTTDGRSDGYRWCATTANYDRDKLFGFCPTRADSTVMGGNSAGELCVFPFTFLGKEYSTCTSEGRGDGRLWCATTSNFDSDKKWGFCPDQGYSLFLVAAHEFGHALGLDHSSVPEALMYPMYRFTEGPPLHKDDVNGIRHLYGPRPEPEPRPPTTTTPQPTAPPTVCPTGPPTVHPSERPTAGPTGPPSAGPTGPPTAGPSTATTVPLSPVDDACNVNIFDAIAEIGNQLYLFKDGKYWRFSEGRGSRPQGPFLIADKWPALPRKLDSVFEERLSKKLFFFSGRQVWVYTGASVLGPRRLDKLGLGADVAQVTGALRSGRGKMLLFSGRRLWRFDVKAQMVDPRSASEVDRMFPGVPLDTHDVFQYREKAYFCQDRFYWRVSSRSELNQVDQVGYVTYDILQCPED
Protocol: (§1) Twenty-one of the reformatted MMP-26 antibodies were tested for MMP cross reactivity by ELISA analysis. MMP-3, MMP-7, MMP-9, and MMP-12 were coated onto Immulon 2 HB 96-well plates at a concentration of 1 μg/ml for 1 hour at 37° C. The plates were blocked with PBS-T containing 5% (w/v) nonfat dry milk for thirty minutes and subsequently washed with PBS-T. Each antibody was tested for reactivity to all of the above mentioned MMPs at a concentration of 2 μg/ml with an incubation time of 1 hour. Bound antibody was detected with an HRP-conjugated anti-human secondary antibody (Table 3, NT=not tested.).

MMP-3 = molecular target: T3, MMP-3 (UniProt P08254 100-477, limits assumed); assay: cross-reactivity ELISA on coated MMP
T3 construct: also called stromelysin-1
T3 sequence (P08254 100-477 limits assumed): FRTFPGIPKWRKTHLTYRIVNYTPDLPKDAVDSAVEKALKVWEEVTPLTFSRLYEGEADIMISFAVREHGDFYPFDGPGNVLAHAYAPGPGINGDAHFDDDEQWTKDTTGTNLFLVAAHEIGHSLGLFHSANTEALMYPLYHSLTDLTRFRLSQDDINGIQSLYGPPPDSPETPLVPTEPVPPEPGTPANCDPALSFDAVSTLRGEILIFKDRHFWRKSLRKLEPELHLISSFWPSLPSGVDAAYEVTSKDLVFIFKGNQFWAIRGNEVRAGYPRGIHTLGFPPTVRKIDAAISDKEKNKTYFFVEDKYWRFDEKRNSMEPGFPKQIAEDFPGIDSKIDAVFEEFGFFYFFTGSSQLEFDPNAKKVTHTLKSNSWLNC
Protocol: as §1

B2: C03 (antibody, human IgG4, V domains shown)
VH: EVQLLESGGGLVQPGGSLRLSCAASGFTFSLYMMKWVRQAPGKGLEWVSVISSSGGYTQYADSVKGRFTISRDNSKNTLYLQMNNLRAEDTAVYYCARGWDVWGKGTTVTVSS
VL: QSALTQPPSASGTPGQRVTISCSGSNSNIGGNIVIWLQQLPGTAPKLMIYDVSDRPSGVPDRFSGSKSGTSASLAISGLQSEDEADYYCAAWDDSLNGWVFGGGTKLTVLS
notes: whole human IgG4
F > B (fold over background) [1]: 4.1 fold over background
binding result (MMP-9): no binding (tested: 2 µg/ml)
binding result (MMP-3): no binding (tested: 2 µg/ml)

B3: C07 (antibody, human IgG4, V domains shown)
VH: EVQLLESGGGLVQPGGSLRLSCAASGFTFSYYVMMWVRQAPGKGLEWVSVIRPSGGITTYADSVKGRFTISRDNSKNTLYLQTNSLRAEDTAVYYCAKIDYGGNSFYFDYWGQGTLVTVSS
VL: DIQMTQSPSSLSASVGDRVTITCRASQSISNYLNWYQQRPGKAPKLLIYAASSLERGVPSRFSGSGSGTDFTLTISSLQSEDFATYYCQQSYSPPPLTFGGGTKLEIKR
notes: whole human IgG4
F > B (fold over background) [1]: 3.12 fold over background
binding result (MMP-9): no binding (tested: 2 µg/ml)
binding result (MMP-3): no binding (tested: 2 µg/ml)

B4: A01 (antibody, human IgG4, V domains shown)
VH: EVQLLESGGGLVQPGGSLRLSCAASGFTFSAYNMFWVRQAPGKGLEWVSGIGSSGGIAPYADSVKGRFTISRDNSKNTLYLQMNSLRAEDTAVYYCARAAYEVENWFDPWGQGTLVTVSS
VL: DIQMTQSPGTLSLSPGERATLSCRASQIVRSTYLAWYQQKPGQAPRLLIYGTSSRATGVPDRFSGSGSGTDFTLTISGLEPEDFALYYCQRYGDSPPITFGQGTRLEITR
notes: whole human IgG4
F > B (fold over background) [1]: 3.3 fold over background
binding result (MMP-9): no binding (tested: 2 µg/ml)
binding result (MMP-3): no binding (tested: 2 µg/ml)

B5: A03 (antibody, human IgG4, V domains shown)
VH: EVQLLESGGGLVQPGGSLRLSCAASGFTFSIYSMDWVRQAPGKGLEWVSSIYSSGGATRYADSVKGRFTISRDNSKNTLYLQMNSLRAEDTAVYYCARCSWLQLVPMHPWGQGTLVTVSS
VL: QSALTQPPSASGTPGQRVTISCSGGSSNIGSNFVYWYRQLPGTAPKLLIYRNYQRPSGVPDRFSGSKSGTSASLAISGLLSEDEADYYCAAWDDNVGGVFGSGTKVTVLG
notes: whole human IgG4
F > B (fold over background) [1]: 3.54 fold over background
binding result (MMP-9): no binding (tested: 2 µg/ml)
binding result (MMP-3): no binding (tested: 2 µg/ml)

B7: C01 (antibody, human IgG4, V domains shown)
VH: EVQLLESGGGLVQPGGSLRLSCAASGFTFSNYGMSWVRQAPGKGLEWVSVIGPSGGITMYADSVKGRFTISRDNSKNTLYLQMNSLRAEDTAVYYCATGSSSGWYPNFDYWGQGTLVTVSS
VL: DIQMTQSPSTLSASVGDRVTITCRASQSIGNWLAWYQQKPGEAPHLLIYQASSLEGGVPSRFSGSGSGTKFTLNISSLQPDDFATYYCQQYNSYSYTFGQGTKLDIKR
notes: whole human IgG4
F > B (fold over background) [1]: 2.8 fold over background
binding result (MMP-9): no binding (tested: 2 µg/ml)
binding result (MMP-3): no binding (tested: 2 µg/ml)

B8: C06 (antibody, human IgG4, V domains shown)
VH: EVQLLESGGGLVQPGGSLRLSCAASGFTFSFYFMFWVRQAPGKGLEWVSYIGPSGGPTNYADSVKGRFTISRDNSKNTLYLQMNSLRAEDTAVYYCARHYPREYQLPGSFDPWGQGTLVTVSS
VL: DIQMTQSPSSLSASVGDRVTITCRASQGISNYLAWYQQKPGKVPKLLIYPASTLQSGVPSRFSGSGSGTDFTLTISSLQPEDFATYYCQQADSFPPTFGGGTTVEIRR
notes: whole human IgG4
F > B (fold over background) [1]: 2.2 fold over background
binding result (MMP-9): no binding (tested: 2 µg/ml)
binding result (MMP-3): no binding (tested: 2 µg/ml)

B10: C08 (antibody, human IgG4, V domains shown)
VH: EVQLLESGGGLVQPGGSLRLSCAASGFTFSYYEMMWVRQAPGKGLEWVSSISPSGGPTMYADSVKGRFTISRDNSKNTLYLQMNSLRAEDTGVYYCARKMGRVGYCSSTSCYRDDYYGMDVWGQGTTVTVSS
VL: DIQMTQSPPSLSALVGDRVTITCRASQSISRYVNWYQQKPGKAPKVLIYAASIVENGVPSRFSGSGSGTDFSLTISSLQPEDFATYYCQQTYSTPLTFGGGTKLAIKR
notes: whole human IgG4
F > B (fold over background) [1]: 3.4 fold over background
binding result (MMP-9): no binding (tested: 2 µg/ml)
binding result (MMP-3): no binding (tested: 2 µg/ml)

B11: C04 (antibody, human IgG4, V domains shown)
VH: EVQLLESGGGLVQPGGSLRLSCAASGFTFSMYFMVWVRQAPGKGLEWVSWIGSSGGETPYADSVKGRFTISRDNSKNTLYLQMNSLRAEDTAVYYCARGYSSGWYVMGDYWGQGTLVTVSS
VL: QSALTQPPSASGTPGQRVTISCSGTSSNIGSHYVFWYQQLPGTAPKLLIHRNDERPSGVPDRFSGSKSGTSASLAISGLQSEDEADYYCATWDDNLNGPVFGGGTKLT
notes: whole human IgG4
F > B (fold over background) [1]: 2.9 fold over background
binding result (MMP-9): no binding (tested: 2 µg/ml)
binding result (MMP-3): no binding (tested: 2 µg/ml)

B12: C05 (antibody, human IgG4, V domains shown)
VH: EVQLLESGGGLVQPGGSLRLSCAASGFTFSSYQMDWVRQAPGKGLEWVSRIVPSGGDTTYADSVKGRFTISRDNSKNTLYLQMNSLRAEDTAVYYCARHVYYDSSDYFPNPFDYWGQGTLVTVSS
VL: QSELTQPPSVSGTPGQRVTISCSGSSSNIGSEYVYWFQQLPGTAPRLLIYRNDQRPSGVPDRFSGSKSGTSASLAISGLRSEDETDYYCTTWDDSLSGPVFGGGTKLTVLG
notes: whole human IgG4
F > B (fold over background) [1]: 3.6 fold over background
binding result (MMP-9): no binding (tested: 2 µg/ml)
binding result (MMP-3): no binding (tested: 2 µg/ml)

Results, then the binder that gave them:

F > B (fold over background) [1]: 3.4 fold over background
binding result (MMP-9): no binding (tested: 2 µg/ml)
binding result (MMP-3): no binding (tested: 2 µg/ml)
B1: C09 (antibody, human IgG4, V domains shown)
VH: EVQLLESGGGLVQPGGSLRLSCAASGFTFSQYFMNWVRQAPGKGLEWVSYISGGRTPYADSVKGRFTISRDNSKNTLYLQMNSLRAEDTAVYYCAILLGPSSSNHPFLGPWGQGTLVTVSS
VL: DIQMTQSPGTLSLSPGERATLSCRASQSVSSTYLAWYQQKPGQAPRLLISGASSRATGIPDRFSGSGSGTDFTLTISRLEPEDFAVYYCQQYGSSPYTFGQGTKLEIKR
notes: whole human IgG4

F > B (fold over background) [1]: 2.83 fold over background
binding result (MMP-9): no binding (tested: 2 µg/ml)
binding result (MMP-3): no binding (tested: 2 µg/ml)
B6: B12 (antibody, human IgG4, V domains shown)
VH: EVQLLESGGGLVQPGGSLRLSCAASGFTFSLYVMYWVRQAPGKGLEWVSYISSSGGITHYADSVKGRFTISRDNSKNTLYLQMNSLRAEDTAVYYCARGSIVVVPAAIRSNNWFDPWGQGTLVTVSS
VL: QSALTQPPSVSVAPGQTARISCGGDNIDTKNVQWYQQRPGQAPVLVVYDNSDRPSAIPERFSGSNSGTTATLTISRVEAGDEADYYCQVFDGRSDHPVFGGGTKLTV
notes: whole human IgG4

F > B (fold over background) [1]: 3.41 fold over background
binding result (MMP-9): no binding (tested: 2 µg/ml)
binding result (MMP-3): no binding (tested: 2 µg/ml)
B9: C10 (antibody, human IgG4, V domains shown)
VH: EVQLLESGGGLVQPGGSLRLSCAASGFTFSVYVMMWVRQAPGKGLEWVSGIVPSGGKTHYADSVKGRFTISRDNSKNTLYLQMNSLRAEDTAVYYCARPDYGGNSRPLEYWGQGTLVTVSS
VL: QSELTQPASVSGSPGQSITISCTGTSSDVGSYNLVSWYQQHPGKAPKLMIYEGSKRPSGVSNRFSGSKSGNTASLTISGLQAEDEADYYCCSYAGSSTYVFGTGTKVTVLG
notes: whole human IgG4

F > B (fold over background) [1]: 3.13 fold over background
binding result (MMP-9): no binding (tested: 2 µg/ml)
binding result (MMP-3): no binding (tested: 2 µg/ml)
B13: B11 (antibody, human IgG4, V domains shown)
VH: EVQLLESGGGLVQPGGSLRLSCAASGFTFSPYFMFWVRQAPGKGLEWVSSIGSSGGDTSYADSVKGRFTISRDNSZNTLYLQMNSLRAEDTAVYYCARGLYRWGQGTLVTVSS
VL: QSELTQPPSVSLAPGQTARITCGGNNIGTKSVHWYQQKPGQAPVLVVYDDSDRPSGIPERFSGSNSGNTATLTISRVEAGDEADYYCQVWDSGSDHQVFGGGTKLTVLG
notes: whole human IgG4; the VHC entry has one unread residue (printed z, K75z)

F > B (fold over background) [1]: 3 fold over background
binding result (MMP-9): no binding (tested: 2 µg/ml)
binding result (MMP-3): no binding (tested: 2 µg/ml)
B14: B08 (antibody, human IgG4, V domains shown)
VH: EVQLLESGGGLVQPGGSLRLSCAASGFTFSRYMMNWVRQAPGKGLEWVSVIWSSGGKTLYADSVKGRFTISRDNSKNTLYLQMKSLRAEDTAVYYCARGGYNNYYYSMDVWGQGTTVTVSS
VL: QSELTQPHSVSGSPGKTVTISCTRSSGSIAGNYVQWYQQRPGSSPTTVIYEDNKRPSGVPDRFSGSIDSSSNSASLIISGLKTEDEADYYCHSYDTSNQVFGGGTKLTVLG
notes: whole human IgG4
